Experimental data as given in paper doi:10.1101/581934.

Biological target: MeCP2-MBD WT (Homo sapiens, UniProt P51608 80-164)
Test: ITC

MeCP2-MBD WT, sequence (P51608 80-164): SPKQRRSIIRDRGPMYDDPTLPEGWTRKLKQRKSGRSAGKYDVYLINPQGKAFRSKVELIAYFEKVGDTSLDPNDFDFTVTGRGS

B1: MARs DNA 16mer (dsDNA)
DNA 1: GTGCAGGTGTCCTTAA
DNA 2: TTAAGGACACCTGCAC
Kd: 2.8 ± 0.2 µM

B2: Mutated MARs DNA 16mer (dsDNA)
DNA 1: GCCCTGGTGTAGTGGC
DNA 2: GCCACTACACCAGGGC
Kd: 3.8 ± 0.7 µM
